Experimental data taken from patent US20220363763A1 (ABL BIO, published 2022).

Legend:
[1] = target: T1, human PD-L1 (construct not stated) (human, UniProt Q9NZQ7 19-239, limits assumed); assay: SPR Biacore, affinity ranking
T1 construct: also called B7-H1 (PD-L1); PD-L1 protein

human PD-L1-Fc protein = target: T2, human PD-L1-Fc protein (human, UniProt Q9NZQ7 19-239); assay: ELISA on coated human PD-L1-Fc
T2 construct: Coated on ELISA plates; also called huPD-L1; not shown: Fc part
Procedure: To evaluate the antigen binding activity, the antibodies were subjected to ELISA test. Briefly, microtiter plates were coated with human PD-L1-Fc protein at 2 μg/ml in PBS, 100 μl/well at 4° C. overnight, then blocked with 100 μl/well of 5% BSA. 4-fold dilutions of humanized antibodies starting from 10 μg/ml were added to each well and incubated for 1-2 hours at RT. The plates were washed with PBS/Tween and then incubate with […] antibody conjugated with Horse Radish Peroxidase (HRP) for 1 hour at RT. After washing, the plates were developed with TMB substrate and analyzed by spectrophotometer at OD 450-630 nm.

[2] = target: T3, human PD-L1 expressed on mammalian cells (human, UniProt Q9NZQ7 19-290); assay: cell-based binding on Raji-PDL1 cells (FACS by paragraph 328; the y axis of the sheet is labelled IL2 (ng/ml)); EC50 table has no unit, x axis Concentration (nM)
T3 construct: whole, on cells; also called PDL1-CHOK1 cells; PDL1-Raji cells
T3 sequence (Q9NZQ7 19-290): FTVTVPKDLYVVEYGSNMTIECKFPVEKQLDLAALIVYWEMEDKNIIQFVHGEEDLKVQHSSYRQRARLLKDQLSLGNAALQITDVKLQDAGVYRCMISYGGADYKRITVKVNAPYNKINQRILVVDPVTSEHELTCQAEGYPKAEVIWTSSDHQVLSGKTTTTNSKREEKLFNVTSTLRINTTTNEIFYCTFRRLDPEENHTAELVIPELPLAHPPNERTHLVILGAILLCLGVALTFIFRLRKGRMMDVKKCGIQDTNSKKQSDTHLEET
Procedure: To evaluate the antigen binding property, the antibodies were analyzed for its binding to mammalian expressed PD-L1 by FACS. Briefly, PDL1-Raji cells were firstly incubated with 5-fold serious diluted humanized antibodies starting at 2 µg/ml at RT for 1 hour. After wash by FACS buffer (PBS with 2% FBS), the Alexa 488-anti-human IgG antibody was added to each well and incubated at RT for 1 hour. The MFI of Alexa 488 was evaluated by FACSAriaIII.

[3] = target: T4, human LAG3-His protein (Sinobio, 16498-H08H) (human, UniProt P18627 23-450); assay: ELISA on coated human LAG3-His, panel LAG3
T4 construct: also called human LAG3 protein; not shown: His tag
T4 sequence (looked up): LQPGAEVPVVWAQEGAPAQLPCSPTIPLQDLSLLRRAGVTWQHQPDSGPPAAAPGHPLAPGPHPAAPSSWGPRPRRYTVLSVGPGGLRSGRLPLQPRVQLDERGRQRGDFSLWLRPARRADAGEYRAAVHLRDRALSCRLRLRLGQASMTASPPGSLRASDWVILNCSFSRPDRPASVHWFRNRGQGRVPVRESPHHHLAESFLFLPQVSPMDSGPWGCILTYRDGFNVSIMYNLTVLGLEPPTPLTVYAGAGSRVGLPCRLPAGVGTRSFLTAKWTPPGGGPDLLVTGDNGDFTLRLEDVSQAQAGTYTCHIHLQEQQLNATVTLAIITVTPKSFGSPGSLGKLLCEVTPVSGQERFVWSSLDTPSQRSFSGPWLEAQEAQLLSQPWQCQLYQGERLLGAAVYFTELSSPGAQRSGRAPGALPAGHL
How it was run: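 Bispecific antibodies were tested by ELISA on plates coated overnight at 4° C with human LAG3-His protein at 0.5 μg/ml in PBS (100 μl/well), then blocked with 5% BSA. Four-fold antibody dilutions starting from 100 nM were incubated for 1-2 hours at RT. EC50 was read off the binding curve.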

[4] = target: T5, recombinant his-tag human LAG3-ECD protein (human, UniProt P18627 23-450); assay: Biacore, antibody captured, His-tag human LAG3-ECD injected (procedure of Example 2.16(B)); column ka (1/Ms)
T5 construct: extracellular domain; not shown: his tag
T5 sequence (looked up): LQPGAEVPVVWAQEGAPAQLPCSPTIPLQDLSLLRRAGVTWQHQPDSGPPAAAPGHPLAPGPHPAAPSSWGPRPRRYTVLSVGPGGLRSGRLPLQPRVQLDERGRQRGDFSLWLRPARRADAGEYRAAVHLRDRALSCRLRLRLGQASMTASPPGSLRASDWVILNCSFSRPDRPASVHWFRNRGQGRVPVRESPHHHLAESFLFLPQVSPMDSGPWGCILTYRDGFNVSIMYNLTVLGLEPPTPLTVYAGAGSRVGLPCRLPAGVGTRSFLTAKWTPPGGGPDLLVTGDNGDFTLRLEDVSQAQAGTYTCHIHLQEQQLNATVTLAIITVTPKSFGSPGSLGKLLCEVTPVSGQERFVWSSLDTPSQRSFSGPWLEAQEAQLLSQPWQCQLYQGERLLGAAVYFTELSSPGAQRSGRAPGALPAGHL
Procedure: (§1) The binding of B3807 to recombinant His-tag human LAG3-ECD protein was examined by Biacore T200 using a capture method. B3807 was captured using protein A which was immobilized on CM5 sensor chip. Serial concentrations of his-tag human LAG3-ECD protein (0-12 nM) were injected over capture antibodies at the flow rate of 30 μl/min. The dissociation phase was 900 s or 550 s.
(§2) B3807 was used in the following examples for further testing and preparing bispecific antibodies.

human LAG3 on cells [5] = target: T6, human LAG3 on cells (human, UniProt P18627 23-525); assay: flow cytometry on activated CD4 T cells
T6 construct: whole, on cells; also called Jurkat-LAG3
T6 sequence (looked up): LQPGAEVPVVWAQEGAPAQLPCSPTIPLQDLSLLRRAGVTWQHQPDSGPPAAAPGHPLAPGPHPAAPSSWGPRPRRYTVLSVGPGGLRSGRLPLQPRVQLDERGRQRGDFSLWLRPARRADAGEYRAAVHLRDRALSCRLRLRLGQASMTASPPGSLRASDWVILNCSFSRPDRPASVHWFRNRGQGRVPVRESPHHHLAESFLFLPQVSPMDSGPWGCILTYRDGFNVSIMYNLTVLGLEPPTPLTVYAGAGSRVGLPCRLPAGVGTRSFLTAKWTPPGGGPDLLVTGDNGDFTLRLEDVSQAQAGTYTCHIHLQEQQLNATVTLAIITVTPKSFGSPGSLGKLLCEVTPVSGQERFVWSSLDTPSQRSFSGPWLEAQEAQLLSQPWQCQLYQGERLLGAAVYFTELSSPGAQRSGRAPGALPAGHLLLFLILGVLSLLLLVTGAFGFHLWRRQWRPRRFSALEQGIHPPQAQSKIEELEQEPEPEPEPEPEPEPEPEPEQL
Procedure: (§3) To further confirm affinity matured anti-LAG-3 antibodies could bind to cell-derived human LAG3, both inducible hLAG3 expressed Jurkat cells and activated PBMCs were used to test the binding capability of B3807b and B3810. In brief, Jurkat cells were resuspended in FACS buffer. Anti-LAG3 antibodies and isotype control were 4-fold serially diluted in FACS buffer with a dose ranging from 20 nM to 30 pM. The serially diluted antibodies were added to the cell suspension and incubated for 30 minutes on ice. Then after removal of unbound antibodies, cells were stained with anti-human IgG conjugated with Alexa Fluor 633 (Thermo, A21091). Fluorescence measurement was acquired on FACSCelesta flow cytometer and analyzed in Flowjo to determine the mean fluorescence intensities (MFI). To test anti-LAG3 antibodies' ability of binding to native human LAG3, PBMCs from health donor were stimulated with anti-CD3 (BD, 555336) and anti-CD28 (BD, 555725) both at a concentration of 1 ug/ml. Following 3 days' stimulation, cells were harvested and incubated with anti-LAG3 antibodies for 30 mins on ice. The cells were stained with anti-human CD4 and anti-human IgG. Analysis of antibodies binding to CD4+ cells were carried out on FACSCelesta flow cytometry. […] FIG. 31 is a graph showing the binding curve of anti-LAG3 antibodies.

[6] = target: T5, recombinant his-tag human LAG3-ECD …; assay: SPR Biacore T200, capture method as Example 2.7
[7] = target: T5, recombinant his-tag human LAG3-ECD …; assay: Biacore, antibody captured, His-tag human LAG3-ECD injected (procedure of Example 2.16(B)); column kd(1/s)
Procedure: as §1, §2

human LAG3 on cells [8] = target: T6, human LAG3 on cells; assay: flow cytometry on hLAG3-expressing Jurkat cells
Procedure: as §3

human LAG3 on cells [9] = target: T6, human LAG3 on cells; assay: flow cytometry (MFI) on activated CD4 T cells, lower panel; EC50 table has no unit, x axis Concentration (nM); Table 31 of the text prints the rounded 0.33
Procedure: as §3

[10] = target: T7, recombinant human LAG-3-ECD-human IgG1 fusion protein (human, UniProt P18627 23-450, biotin-labeled in the MHC class II blocking assays); assay: ELISA as Example 2.2, coated human LAG3 ECD-Fc
T7 construct: extracellular domain; also called LAG-3-huFc; LAG-3-ECD-huFc; not shown: human IgG1 Fc
T7 sequence (looked up): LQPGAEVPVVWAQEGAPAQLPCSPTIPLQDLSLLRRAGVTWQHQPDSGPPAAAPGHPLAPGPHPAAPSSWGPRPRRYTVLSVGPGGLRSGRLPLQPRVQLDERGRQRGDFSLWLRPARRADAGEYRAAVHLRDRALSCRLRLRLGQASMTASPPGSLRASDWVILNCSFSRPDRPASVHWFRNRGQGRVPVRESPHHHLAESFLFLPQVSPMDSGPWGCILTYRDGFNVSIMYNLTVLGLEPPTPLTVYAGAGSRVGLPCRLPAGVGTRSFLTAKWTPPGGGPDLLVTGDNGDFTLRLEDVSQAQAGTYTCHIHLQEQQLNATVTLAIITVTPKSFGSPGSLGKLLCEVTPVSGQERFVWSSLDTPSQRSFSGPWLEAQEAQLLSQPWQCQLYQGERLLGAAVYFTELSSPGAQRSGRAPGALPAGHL
Procedure: To evaluate the capability of the anti-LAG-3 antibodies to bind to human, rat, and mouse LAG3 the antibodies identified in Example 2.1 were evaluated for their binding property through ELISA. The human, rat and mouse LAG3 ECD-Fc protein were coated to ELISA plate at 1 μg/ml with 100 μl/well. Antibodies from Example 1 were serially diluted with ELISA diluent buffer. […] The resulting plates were washed and then labeled with anti-human IgG(Fab)-HRP antibody. The S31 can only bind to human LAG3. The S27 and T99 can bind to human LAG3 and rat/mouse LAG3 with lower potency. The S119 antibody can bind to human, rat and mouse LAG3 at high potency (FIGS. 22A-22D).

[11] = target: T5, recombinant his-tag human LAG3-ECD …; assay: Biacore, antibody captured, His-tag human LAG3-ECD injected (procedure of Example 2.16(B))
Procedure: as §1, §2

human LAG3 on cells [12] = target: T6, human LAG3 on cells; assay: flow cytometry (MFI) on Jurkat-LAG3 cells, upper panel; EC50 table has no unit, x axis Concentration (nM); Table 31 of the text prints the rounded 0.4
Procedure: as §3

human LAG3 on cells [13] = target: T6, human LAG3 on cells; assay: flow cytometry (MFI) on Jurkat-LAG3 cells, upper panel; EC50 table has no unit, x axis Concentration (nM); Table 31 of the text prints the rounded 0.5
Procedure: as §3

human LAG3 on cells [14] = target: T6, human LAG3 on cells; assay: flow cytometry (MFI) on activated CD4 T cells, lower panel; EC50 table has no unit, x axis Concentration (nM); Table 31 of the text prints the rounded 0.39
Procedure: as §3

T1 sequence (Q9NZQ7 19-239 limits assumed): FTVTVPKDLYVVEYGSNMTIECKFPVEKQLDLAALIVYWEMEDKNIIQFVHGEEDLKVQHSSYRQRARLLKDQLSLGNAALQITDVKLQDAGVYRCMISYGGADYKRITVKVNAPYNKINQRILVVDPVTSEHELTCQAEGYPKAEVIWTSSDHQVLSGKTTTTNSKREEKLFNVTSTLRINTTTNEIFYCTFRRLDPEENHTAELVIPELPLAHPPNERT
T2 sequence (Q9NZQ7 19-239 limits assumed): as above

B1: B6 (antibody, V domains shown)
VH: EVQLVESGGGLVQPGGSLRLSCAASGFTFSSYDMSWVRQAPGKSLEWVATISDAGGYIYYRDSVKGRFTISRDNAKNSLYLQMNSLRDEDTAVYICARELPWRYALDYWGQGTTVTVSS
VL: DIQMTQSPSSLSASVGDRVTITCKASQDVTPAVAWYQQKPGKAPKLLIYSTSSRYTGVPSRFSGSGSGTDFTFTISSLQPEDIATYYCQQHYTTPLTFGQGTKLEIK
notes: also called B6 monoclonal antibody
[1]
  Kd: 1.02 nM
  koff: 0.000246 s⁻¹
  kon: 242000 M⁻¹ s⁻¹
Human PD-L1-Fc protein
  EC50 (read off the curve): ~0.2 µg/mL
[2]
  EC50: 1.2 nM

B2: 147(H3807)xH12 (bispecific antibody, human IgG4 S228P, kappa)
heavy: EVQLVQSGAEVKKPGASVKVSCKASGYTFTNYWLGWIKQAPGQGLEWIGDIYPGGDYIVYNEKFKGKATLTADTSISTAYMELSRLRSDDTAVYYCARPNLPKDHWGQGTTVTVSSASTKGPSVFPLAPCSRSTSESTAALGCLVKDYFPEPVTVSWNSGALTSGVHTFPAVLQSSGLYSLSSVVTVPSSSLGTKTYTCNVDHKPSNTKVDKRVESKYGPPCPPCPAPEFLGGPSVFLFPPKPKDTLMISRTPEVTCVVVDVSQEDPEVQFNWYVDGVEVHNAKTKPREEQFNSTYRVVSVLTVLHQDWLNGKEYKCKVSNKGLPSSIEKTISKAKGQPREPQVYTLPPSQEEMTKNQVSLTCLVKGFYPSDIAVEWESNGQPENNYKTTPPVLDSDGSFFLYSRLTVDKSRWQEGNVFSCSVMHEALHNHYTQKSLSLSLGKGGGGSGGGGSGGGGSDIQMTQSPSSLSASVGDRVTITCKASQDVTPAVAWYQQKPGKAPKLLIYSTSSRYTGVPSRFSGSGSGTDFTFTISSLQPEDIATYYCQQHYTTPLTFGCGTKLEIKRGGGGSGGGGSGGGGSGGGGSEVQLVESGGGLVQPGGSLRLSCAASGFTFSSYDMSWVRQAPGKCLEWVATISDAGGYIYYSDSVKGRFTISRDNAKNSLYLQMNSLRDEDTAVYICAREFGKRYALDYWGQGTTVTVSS
light: DIVMTQSPLSLPVTPGEPASISCRSSKSLLHSQGITYLYWYLQKPGQSPQLLIYQVSNLASGVPDRFSGSGSGTDFTLKISRVEAEDVGVYYCAQYLELPWTFGGGTKVEIKRTVAAPSVFIFPPSDEQLKSGTASVVCLLNNFYPREAKVQWKVDNALQSGNSQESVTEQDSKDSTYSLSSTLTLSKADYEKHKVYACEVTHQGLSSPVTKSFNRGEC
[3]
  EC50 (read off the curve): ~0.4 nM

B3: 147H 3807b (antibody, V domains shown)
VH: EVQLVQSGAEVKKPGASVKVSCKASGYTFTNYWLGWIKQAPGQGLEWIGDIYPGGDYIVYNEKFKGKATLTADTSISTAYMELSRLRSDDTAVYYCARPNLPKDHWGQGTTVTVSS
VL: DIVMTQSPLSLPVTPGEPASISCRSSKSLLHSNAITYLYWYLQKPGQSPQLLIYQVSNLASGVPDRFSGSGSGTDFTLKISRVEAEDVGVYYCAQYLELPWTFGGGTKVEIK
notes: also called B3807b
[4]
  kon: 3.46e+06 M⁻¹ s⁻¹
Human LAG3 on cells [5]
  EC50: 0.33 nM
[6]
  Kd: 0.51 nM
  koff: 0.002 s⁻¹
  kon: 4e+06 M⁻¹ s⁻¹
[7]
  koff: 0.00334 s⁻¹
Human LAG3 on cells [8]
  EC50: 0.4 nM
Human LAG3 on cells [9]
  EC50: 0.333 nM
[10]
  EC50: 0.41 nM
[11]
  Kd: 0.968 nM
Human LAG3 on cells [12]
  EC50: 0.39 nM

B4: 147H 3810 (antibody, V domains shown)
VH: EVQLVQSGAEVKKPGASVKVSCKASGYLFTNYWLGWIKQAPGQGLEWIGDIYPGGDYIVYNEKFKGKATLTADTSISTAYMELSRLRSDDTAVYYCARPNLPKDHWGQGTTVTVSS
VL: DIVMTQSPLSLPVTPGEPASISCRSSKSLLHSNAITYLYWYLQKPGQSPQLLIYQVSNLATGVPDRFSGSGSGTDFTLKISRVEAEDVGVYYCAQYLELPWTFGGGTKVEIK
notes: also called B3810
Human LAG3 on cells [5]
  EC50: 0.39 nM
[6]
  Kd: 0.41 nM
  koff: 0.0019 s⁻¹
  kon: 4.7e+06 M⁻¹ s⁻¹
Human LAG3 on cells [8]
  EC50: 0.5 nM
[10]
  EC50: 0.49 nM
Human LAG3 on cells [13]
  EC50: 0.492 nM
Human LAG3 on cells [14]
  EC50: 0.391 nM
